From patent publication US20250026849A1 (ARCELLX, published 2025)
Numbering of substitutions follows the chain as printed.

T1: CD123 (Homo sapiens (Human), UniProt P26951 19-305, limits assumed)
T1 construct: The CD123 construct used in the ELISA is not described; also called CD123-Signal
T1 sequence: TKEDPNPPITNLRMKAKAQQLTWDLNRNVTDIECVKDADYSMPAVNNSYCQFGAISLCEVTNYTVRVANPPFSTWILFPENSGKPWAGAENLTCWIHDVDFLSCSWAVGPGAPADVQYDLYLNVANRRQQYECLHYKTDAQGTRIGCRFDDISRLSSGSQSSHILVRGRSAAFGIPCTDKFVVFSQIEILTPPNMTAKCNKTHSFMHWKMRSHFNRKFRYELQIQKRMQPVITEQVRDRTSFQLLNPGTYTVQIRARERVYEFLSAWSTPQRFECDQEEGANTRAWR

B1: D domain of SEQ ID NO: 560 (designed binder)
chain: MGSWVVFKQDLADINHQLEALGGSEAELAWFEWEIADFEWELQHYKGKGNPEVEALRKEAAAIRDELQAYRHN
B2: D domain of SEQ ID NO: 555 (designed binder)
chain: MGSWWDFKDWLAEIKHDLEALGGSEAELALFESEIADFEFGLQWYKGKGNPEVEALRKEAAAIRDELQAYRHN
B3: D domain of SEQ ID NO: 513 (designed binder)
chain: MGSWEWFKSDLASIKWELEALGGSEAELAWFEHDIAEFEEDLQWYKGKGNPEVEALRKEAAAIRDELQAYRHN
B4: D domain of SEQ ID NO: 515 (designed binder)
chain: B3 chain with E5T, W6F, S9D, S13E, E17M, H33S, E37Y, E40D, D41E
B5: D domain of SEQ ID NO: 517 (designed binder)
chain: MGSWSMFKDDLAEIKASLEALGGSEAELAWFEDDIAWFEDDLQHYKGKGNPEVEALRKEAAAIRDELQAYRHN
B6: D domain of SEQ ID NO: 516 (designed binder)
chain: B5 chain with M6D, A16M, S17I, W30Y, D33N, H44E
B7: D domain of SEQ ID NO: 518 (designed binder)
chain: B5 chain with S5Q, M6Y, A16M, S17V, D33A, W37M, H44I
B8: D domain of SEQ ID NO: 559 (designed binder)
chain: MGSWAEFKHDLADIKRELEALGGSEAELAWFELSIAFFEDELQHYKGKGNPEVEALRKEAAAIRDELQAYRHN
B9: D domain of SEQ ID NO: 552 (designed binder)
chain: MGSWLYFKEYLADIKSDLEALGGSEAELAWFEYEIADFEEQLQYYKGKGNPEVEALRKEAAAIRDELQAYRHN
B10: D domain of SEQ ID NO: 556 (designed binder)
chain: MGSWDEFKEDLAHIKTDLEALGGSEAELALFEDEIADFEMYLQHYKGKGNPEVEALRKEAAAIRDELQAYRHN
B11: D domain of SEQ ID NO: 528 (designed binder)
chain: MGSWYDFKEDLADIKWMLEALGGSEAELAEFENVIAYFENDLQEYKGKGNPEVEALRKEAAAIRDELQAYRHN
B12: D domain of SEQ ID NO: 529 (designed binder)
chain: B5 chain with S5Y, D9E, D10E, E13D, A16W, S17Y, W37G, D40W, H44A
B13: D domain of SEQ ID NO: 546 (designed binder)
chain: MGSWHVFKTELADIKFYLEALGGSEAELAMFELWIAEFEHELQDYKGKGNPEVEALRKEAAAIRDELQAYRHN
B14: D domain of SEQ ID NO: 561 (designed binder)
chain: MGSWFQFKEFLAMITHNLEALGGSEAELAEFEHDIALFESELQQYKGKGNPEVEALRKEAAAIRDELQAYRHN
B15: D domain of SEQ ID NO: 530 (designed binder)
chain: MGSWYYFKDELADIKWDLEALGGSEAELAWFEMLIAQFELDLQWYKGKGNPEVEALRKEAAAIRDELQAYRHN
B16: D domain of SEQ ID NO: 542 (designed binder)
chain: B15 chain with Y6Q, D9T, D13W, W16D, M33W, L34V, Q37D, L40D, W44F
B17: D domain of SEQ ID NO: 531 (designed binder)
chain: B15 chain with Y5M, E10T, D17Y, W30F, M33D, L34W, Q37E, L40D, W44V
B18: D domain of SEQ ID NO: 543 (designed binder)
chain: MGSWFEFKDYLADIKWDLEALGGSEAELAIFEHDIAYFEHNLQQYKGKGNPEVEALRKEAAAIRDELQAYRHN
B19: D domain of SEQ ID NO: 544 (designed binder)
chain: B18 chain with F5V, E6R, Y10F, W16M, I30D, H33Y, D34H, Y37E, Q44E
B20: D domain of SEQ ID NO: 524 (designed binder)
chain: MGSWYIFKEDLAEIKEELEALGGSEAELAYFEEEIALFEMELQWYKGKGNPEVEALRKEAAAIRDELQAYRHN
B21: D domain of SEQ ID NO: 557 (designed binder)
chain: MGSWDFFKYDLANINEWLEALGGSEAELADFEYGIADFELWLQDYKGKGNPEVEALRKEAAAIRDELQAYRHN
B22: D domain of SEQ ID NO: 519 (designed binder)
chain: B5 chain with M6F, A16Y, S17F, W30M, D33Q, D34T, W37E, D40Y, H44D
B23: D domain of SEQ ID NO: 521 (designed binder)
chain: MGSWAWFKEDLAEIKVFLEALGGSEAELAEFEVSIADFEYELQDYKGKGNPEVEALRKEAAAIRDELQAYRHN
B24: D domain of SEQ ID NO: 520 (designed binder)
chain: B23 chain with A5M, W6E, D10E, V16Y, F17I, E30W, V33Q, E41D
B25: D domain of SEQ ID NO: 558 (designed binder)
chain: MGSWYQFKDDLAHIKHLLEALGGSEAELAVFEYIIADFESFLQIYKGKGNPEVEALRKEAAAIRDELQAYRHN
B26: D domain of SEQ ID NO: 538 (designed binder)
chain: MGSWFMFKQELAWIKEDLEALGGSEAELADFEWDIAEFEWDLQYYKGKGNPEVEALRKEAAAIRDELQAYRHN
B27: D domain of SEQ ID NO: 539 (designed binder)
chain: B26 chain with F5Q, M6I, Q9G, W13Y, E16Q, D17Y, D30F, W33F, W40E
B28: D domain of SEQ ID NO: 522 (designed binder)
chain: B5 chain with S5Y, M6E, D9F, A16E, S17Q, W30L, W37F, D40Y, H44N
B29: D domain of SEQ ID NO: 532 (designed binder)
chain: B5 chain with S5Y, M6Q, D9H, E13D, A16Y, S17G, W37D, D40L, H44Y
B30: D domain of SEQ ID NO: 523 (designed binder)
chain: MGSWYDFKYDLAEIKMDLEALGGSEAELAQFEFDIAFFEEELQDYKGKGNPEVEALRKEAAAIRDELQAYRHN
B31: D domain of SEQ ID NO: 533 (designed binder)
chain: B1 chain with V5Y, Q9D, N15K, H16Y, Q17M, D37N, W40F, E41D, H44Y
B32: D domain of SEQ ID NO: 553 (designed binder)
chain: MGSWHWFKEELAEIKEDLVALGGSEAELAWFEYDIAMFELSLQNYKGKGNPEVEALRKEAAAIRDELQAYRHN
B33: D domain of SEQ ID NO: 554 (designed binder)
chain: B32 chain with H5N, W6D, E13W, E16F, V19E, Y33E, L40Q, S41Q, N44A
B34: D domain of SEQ ID NO: 527 (designed binder)
chain: MGSWDHFKNDLAWIKKHLEALGGSEAELAEFEAVIAYFELYLQGYKGKGNPEVEALRKEAAAIRDELQAYRHN
B35: D domain of SEQ ID NO: 547 (designed binder)
chain: MGSWIWFKDWLADIKDLLEALGGSEAELAEFEYDIALFEDQLQAYKGKGNPEVEALRKEAAAIRDELQAYRHN
B36: D domain of SEQ ID NO: 525 (designed binder)
chain: MGSWVLFKEELAYIKFELEALGGSEAELALFENVIAIFESNLQNYKGKGNPEVEALRKEAAAIRDELQAYRHN
B37: D domain of SEQ ID NO: 549 (designed binder)
chain: MGSWTWFKDNLAWIKEDLEALGGSEAELAWFELEIASFETALQDYKGKGNPEVEALRKEAAAIRDELQAYRHN
B38: D domain of SEQ ID NO: 550 (designed binder)
chain: B37 chain with W6Y, D9N, N10D, W13G, W30Q, L33F, S37E, T40W, A41L
B39: D domain of SEQ ID NO: 551 (designed binder)
chain: B37 chain with D9W, N10D, W13D, E16G, W30F, L33E, S37E, T40W, A41R
B40: D domain of SEQ ID NO: 535 (designed binder)
chain: MGSWHWFKIVLADIKDGLEALGGSEAELAYFETTIADFEMDLQHYKGKGNPEVEALRKEAAAIRDELQAYRHN
B41: D domain of SEQ ID NO: 536 (designed binder)
chain: B40 chain with Q43H
B42: D domain of SEQ ID NO: 526 (designed binder)
chain: MGSWQDFKEDLAWIKYELEALGGSEAELAFFEYDIAIFENNLQHYKGKGNPEVEALRKEAAAIRDELQAYRHN
B43: D domain of SEQ ID NO: 540 (designed binder)
chain: MGSWDFFKEELAEIKHYLEALGGSEAELAFFEFWIADFEQDLQEYKGKGNPEVEALRKEAAAIRDELQAYRHN
B44: D domain of SEQ ID NO: 541 (designed binder)
chain: B43 chain with D5F, F6N, E13V, H16F, Y17Q, F33W, W34V, Q40D
B45: D domain of SEQ ID NO: 534 (designed binder)
chain: MGSWNFFKYDLADIMAYLEALGGSEAELAFFEDEIANFEHDLQKYKGKGNPEVEALRKEAAAIRDELQAYRHN
B46: D domain of SEQ ID NO: 537 (designed binder)
chain: MGSWFMFKEELADIKDWLEALGGSEAELASFESYIAWFEQDLQWYKGKGNPEVEALRKEAAAIRDELQAYRHN
B47: D domain of SEQ ID NO: 545 (designed binder)
chain: MGSWWLFKEQLALIKYNLEALGGSEAELADFESWIAEFEHQLQEYKGKGNPEVEALRKEAAAIRDELQAYRHN
B48: D domain of SEQ ID NO: 548 (designed binder)
chain: MGSWGWFKHELAFIKADLEALGGSEAELAWFEEEIAEFEYELQFYKGKGNPEVEALRKEAAAIRDELQAYRHN

molecular target: T1, CD123; experiment: ELISA; set-up: unit not given here

Going from B1 to B2, the ELISA_avg rises from 3.6 to 4.2.

Going from B3 to B4, the ELISA_avg falls from 5.7 to 3.3.

Compared with B5, B6 is lower in ELISA_avg: 5.2 for the first, 4.7 for the second.

First: B7
Second: B8
The ELISA_avg of the first is higher: 3.6 for the first, 3.3 for the second.

Going from B9 to B10, the ELISA_avg rises from 3.7 to 6.3.

Compared with B11, B12 is lower in ELISA_avg: 8 for the first, 7 for the second.

Going from B13 to B14, the ELISA_avg falls from 5.4 to 3.1.

First: B15
Second: B16
The ELISA_avg of the first is lower: 4 for the first, 6.6 for the second.

Compared with B17, B18 is higher in ELISA_avg: 3.1 for the first, 3.8 for the second.

Compared with B19, B20 is higher in ELISA_avg: 5.8 for the first, 11.1 for the second.

Compared with B21, B22 is higher in ELISA_avg: 5.5 for the first, 10.1 for the second.

Compared with B23, B24 is higher in ELISA_avg: 3.5 for the first, 5 for the second.

Compared with B25, B26 is higher in ELISA_avg: 4 for the first, 7.2 for the second.

First: B27
Second: B28
The ELISA_avg of the first is higher: 4.7 for the first, 4.6 for the second.

Going from B29 to B30, the ELISA_avg falls from 4.7 to 3.2.

Going from B31 to B32, the ELISA_avg falls from 3.8 to 3.1.

Compared with B33, B34 is lower in ELISA_avg: 3.8 for the first, 3.3 for the second.

First: B35
Second: B36
The ELISA_avg of the first is higher: 7.3 for the first, 3.5 for the second.

Compared with B37, B38 is lower in ELISA_avg: 6.9 for the first, 3.6 for the second.

Going from B39 to B40, the ELISA_avg falls from 5.9 to 4.3.

Going from B41 to B42, the ELISA_avg falls from 3.5 to 3.2.

First: B43
Second: B44
The ELISA_avg of the first is lower: 3.7 for the first, 6.1 for the second.

Compared with B45, B46 is higher in ELISA_avg: 4.4 for the first, 5.7 for the second.

First: B47
Second: B48
The ELISA_avg of the first is higher: 4.1 for the first, 3.3 for the second.
